Data on two molecules can be found in patent US20030099631A1.

Data set [1] has as its system T1, DNP-Pro-Cha-Abu-Cys(Me)-His-Ala-Lys(N-Me-Abz)-NH2.
T1 sequence: PXXCHAK

As for “recombinant human liver-derived metalloprotease expressed in Escherichia coli JM109/pNHMB”, in data set [1], the “intensity of fluorescence (excitation 365 nm, emission 460 nm) after cleavage of the substrate” value was “a fluorescence intensity of 230”.

B1: human liver-derived metalloprotease transiently expressed in COS-7 cells transfected with pTB1921 (culture supernatant, treated with aminophenyl-mercuric … (protein)
chain: YLLLGRWRKKHLTFRILNLPSTLPPHTARAALRQAFQDWSNVAPLTFQEVQAGAADIRLSFHGRQSSYCSNTFDGPGRVLAHADIPELGSVHFDEDEFWTEGTYRGVNLRIIAAHEVGHALGLGHSRYSQALMAPVYEGYRPHFKLHPDDVAGIQALYGKKSPVIRDEEEEETELPTVPPVPTEPSPMPDPCSSELDAMMLGPRGKTYAFKGDYVWTVSDSGPGPLFRVSALWEGLPGNLDAAVYSPRTQWIHFFKGDKVWRYINFKMSPGFPKKLNRVEPNLDAALYWPLNQKVFLFKGSGYWQWDELARTDFSSYPKPIKGLFTGVPNQPSAAMSWQDGRVYFFKGKVYWRLNQQLRVEKGYPRNISHNWMHCRPRTIDTTPSGGNTTPSGTGITLDTTLSATETTFEY
Take B1: in the data set with casein, the “casein hydrolyzing activity (PER assay)” value is recorded as “casein hydrolyzing activity which was not found in the mock culture supernatant was detected in the culture supernatant of COS-7 cells transfected with pTB1921”.
